Usually IC50 stands for the midpoint of a concentration-inhibition curve.

Consider 13 molecules from patent US9573987B2 (priority 2011, dated 2017).

The target in one series is IR-B (Homo sapiens, UniProt P06213). Kind of series: In vitro activity of pegylated analogs relative to native insulin at IR-B.
A further series addresses IR-A (Homo sapiens, UniProt P06213). In words: In vitro activity of pegylated analogs relative to native insulin at IR-A.
A further series concerns blood glucose. Kind of series: Comparative insulin tolerance test / insulin dose titration in mice.
The next series relates to insulin receptor. The settings on record: background statement; cited from earlier work.
Series [1] addresses T1, insulin subtype B receptor (IR-B) (Homo sapiens, UniProt P06213). Kind of series: Insulin subtype B receptor binding (competition binding). More on the design: expressed in transfected cells; plasma membrane fragments. The settings on record: Table 15.
The target of series [2] is T2, IGF-1 receptor (Homo sapiens, UniProt P08069). In words: IGF-1 receptor binding assay (competition, scintillation proximity). More on the design: expressed in transfected cells; plasma membrane fragments. Conditions: Table 15; read-out: Receptor Binding IGR-1R EC50.
The target in series [3] is T3, insulin subtype A receptor (IR-A) (Homo sapiens, UniProt P06213).
T3 construct: expressed in transfected cells; host or cells: HEK293
In words: Insulin subtype A receptor phosphorylation, receptor transfected HEK293 cells. The class given is cell-based. On the procedure: (§1) Color development was stopped 5 min later by adding 0.05 ml 1 N HCl. Absorbance at 450 nm was measured on Titertek Multiscan MCC340 (ThermoFisher, Pittsburgh, Pa.). […]

In series [4] the target is T1, insulin subtype B receptor (IR-B). In words: Insulin subtype B receptor phosphorylation, receptor transfected HEK293 cells. Also on record: expressed in transfected cells; host or cells: HEK293. The class given is cell-based. On the procedure:
as §1

The target in series [5] is T2, IGF-1 receptor. Kind of series: IGF-1 receptor phosphorylation assay, receptor transfected HEK293 cells. Conditions: Table 15; read-out: Receptor Phosphorylation IGF-IR EC50. More on the design: expressed in transfected cells; host or cells: HEK293. The class given is cell-based. Here is the method: Color development was stopped 5 min later by adding 0.05 ml 1 N HCl. Absorbance at 450 nm was measured on Titertek Multiscan MCC340 (ThermoFisher, Pittsburgh, Pa.).

The subject of series [6] is human mammary epithelial cells (HMEC). Kind of series: Human mammary epithelial cells proliferation ([14C]-thymidine). The class given is cell-based. Conditions: Table 15; read-out: Proliferation HMEC EC50. Here is the method:
The plate was incubated 4 h at 37° C., 5% CO2 and 90% humidity.

Where [7] appears, read: Table 15, read-out: Receptor Phosphorylation IR-A- EC50.
The mark [8] stands for this setting: read-out: EC50 values (in nM), phosphorylation at the insulin subtype A receptor, experiment of FIG. 18A.
The mark [9] stands for this setting: Table 15, read-out: Receptor Phosphorylation IR-B EC50.
[10] abbreviates: read-out: EC50 values (in nM), phosphorylation at the insulin subtype B receptor, experiment of FIG. 18B.

Where two headings read alike, the source gives them in different places. Where a SMILES comes first, the peptide text is derived from it. Bridges are numbered along the chain shown (N, C = ends). Where no end group is shown, it is not given here. Side-chain parts run from the residue outwards. [ ]: non-standard residue; d: D form. Phe(4-NH2) = Nc1ccc(C[C@H](N)C(=O)O)cc1; Aib = CC(C)(N)C(=O)O; Sar = CNCC(=O)O

Regarding `CC[C@H](C)[C@H](NC(=O)CN)C(=O)N[C@H](C(=O)N[C@@H](CC(=O)O)C(=O)N[C@@H](CCC(=O)O)C(=O)N[C@@H](C)C(=O)N[C@@H](C)C(=O)N[C@@H](Cc1ccccc1)C(=O)N[C@@H](CCCNC(=N)N)C(=O)N[C@@H](CO)C(=O)N[C@@H](C)C(=O)N[C@@H](CC(=O)O)C(=O)N[C@@H](CC(C)C)C(=O)N[C@@H](CCCNC(=N)N)C(=O)N[C@@H](CCCNC(=N)N)C(=O)N[C@@H](CC(C)C)C(=O)N[C@@H](CCC(=O)O)C(=O)N[C@@H](CCSC)C(=O)N[C@@H](Cc1ccc(NC(=O)[C@@H]2CCCN2C(=O)C(C)(C)N)cc1)C(=O)N[C@@H](C)C(=O)N[C@@H](C)C(N)=O)C(C)C` [AiB Pro] (H-GIVDEAAFRSADLRRLEM[Phe(4-NH2)]([Pro-Aib])AA-NH2), the “Half Life (hr) 20% Plasma/PBS” value stood at 2.1 h.
Take `CC[C@H](C)[C@H](NC(=O)CN)C(=O)N[C@H](C(=O)N[C@@H](CC(=O)O)C(=O)N[C@@H](CCC(=O)O)C(=O)N[C@@H](C)C(=O)N[C@@H](C)C(=O)N[C@@H](Cc1ccccc1)C(=O)N[C@@H](CCCNC(=N)N)C(=O)N[C@@H](CO)C(=O)N[C@@H](C)C(=O)N[C@@H](CC(=O)O)C(=O)N[C@@H](CC(C)C)C(=O)N[C@@H](CCCNC(=N)N)C(=O)N[C@@H](CCCNC(=N)N)C(=O)N[C@@H](CC(C)C)C(=O)N[C@@H](CCC(=O)O)C(=O)N[C@@H](CCSC)C(=O)N[C@@H](Cc1ccc(NC(=O)[C@H]2CCCN2C(=O)C(C)(C)N)cc1)C(=O)N[C@@H](C)C(=O)N[C@@H](C)C(N)=O)C(C)C` [AiB dPro] (H-GIVDEAAFRSADLRRLEM[Phe(4-NH2)]([dP-Aib])AA-NH2): the “Half Life (hr) 20% Plasma/PBS” value is 2.2 h.
Still for that read-out and setting: as for `CC[C@H](C)[C@H](NC(=O)CN)C(=O)N[C@H](C(=O)N[C@@H](CC(=O)O)C(=O)N[C@@H](CCC(=O)O)C(=O)N[C@@H](C)C(=O)N[C@@H](C)C(=O)N[C@@H](Cc1ccccc1)C(=O)N[C@@H](CCCNC(=N)N)C(=O)N[C@@H](CO)C(=O)N[C@@H](C)C(=O)N[C@@H](CC(=O)O)C(=O)N[C@@H](CC(C)C)C(=O)N[C@@H](CCCNC(=N)N)C(=O)N[C@@H](CCCNC(=N)N)C(=O)N[C@@H](CC(C)C)C(=O)N[C@@H](CCC(=O)O)C(=O)N[C@@H](CCSC)C(=O)N[C@@H](Cc1ccc(NC(=O)CN(C)C(=O)[C@@H](N)CCCCN)cc1)C(=O)N[C@@H](C)C(=O)N[C@@H](C)C(N)=O)C(C)C` [K Sar] (H-GIVDEAAFRSADLRRLEM[Phe(4-NH2)]([Sar-Lys])AA-NH2), the figure is 5.9 h.
On to “B^1(H5, H10, Y16, L17)25-C^1-A^1 (H8, N18, N21) (GPEHLCGAHLVDALYLVCGDRGFYGYGSSSRRAPQTGIVDECCHRSCDLRRLENYCN) [MIU-35]”, for which, in the series with IR-B, the “% Insulin Activity IR-B” value stood at 17.4%. For the same molecule, the “% Insulin Activity IR-A” value with IR-A turned out to be 61.4%.
For the molecule “B^1(H5,Y16,L17)25-C^1(K8)-A^1(K14, N18,21) (GPEHLCGAELVDALYLVCGDRGFYGYGSSSRKAPQTGIVDECCFRSCDLKRLENYCN) [MIU-69, two 10K PEG chains, at the N-terminus and at amino acid A14]”, in the series with IR-B, the “% Insulin Activity IR-B” value was 0.5%. For the same molecule, in the series with IR-A, the “% Insulin Activity IR-A” value stood at 1.0%.
On the same counts, the results for “B^1(H5,Y16,L17)25-C^1-A^1(N18,21) (GPEHLCGAELVDALYLVCGDRGFYGYGSSSRRAPQTGIVDECCFRSCDLRRLENYCN) [MIU-57, single chain analog with 20 kDa PEG linked to the N-terminus of the B chain]” are 1.1% and 3.1%.
In the case of “B^1(H5,Y16,L17, K22)25-C^1(K8)-A^1(N18,21) (GPEHLCGAELVDALYLVCGDKGFYGYGSSSRKAPQTGIVDECCFRSCDLRRLENYCN) [MIU-68, two 10K PEG chains, at the N-terminus and at amino acid B22]”, the “% Insulin Activity IR-A” value with IR-A was 0.4%.
Regarding “MIU-58: dimer of two single chain analogs B1(H5,Y16,L17)25-C1-A1(N18,21) linked head to head via 20 kDa PEG (GPEHLCGAELVDALYLVCGDRGFYGYGSSSRRAPQTGIVDECCFRSCDLRRLENYCN; disulfide 18-56, 42-47, 6-43; also: dimer of two chains joined head to head (B1 N-termini) via 20 kDa PEG)”, in the series with IR-B, the “% Insulin Activity IR-B” value came to 5.8%. Further, the “blood glucose lowering in insulin tolerance test (result in words)” value (from here on “blood glucose lowering”) with blood glucose is listed as “less potent than the parent compound, but is still active”. For the same molecule, in the series with IR-A, the “% Insulin Activity IR-A” value was determined as 19.7%.
As to “proinsulin: larger linear precursor of insulin with 35-residue connecting peptide”, the “potency relative to native insulin” value in the series on insulin receptor is reported as 2% to 9%.

B1: DP22LysC: DP22 cleaved at the lysine of CTP to produce a two chain insulin (protein)
chain 1: APPPSLPSPSRLPGPSDTPILPQEEEEERGPEHLCGAHLVDALYLVCGDRGFYSSSSRAPPPSLPSPSRLPGPSDTPILPQK
chain 2: GIVDECCHRSCDLRRLENYCN
As for B1, the EC50 amounted to 3.71 nM in [1]; 58.8 nM with IGF-1 receptor [2]; 0.385 nM in [3] (setting [7]); 0.39 ± 0.06 nM in series [3] (setting [8]); 1.41 nM in series [4] (setting [9]); 1.88 ± 0.52 nM in series [4] (setting [10]). The results for the EC50 (in the series with IGF-1 receptor [5]; in [6]) were 23 nM and 29.7 nM, respectively.

B2: GEEEEEKGPEHLCGAHLVDALYLVCGDRGFYSSSSRAPPPSLPSPSRLPGPSD TPILPQKGIVDECCHRSCDLRRLENYCN (protein, listed as Homo sapiens)
chain: GEEEEEKGPEHLCGAHLVDALYLVCGDRGFYSSSSRAPPPSLPSPSRLPGPSDTPILPQKGIVDECCHRSCDLRRLENYCN
Consider B2, for which the EC50 came out at 5.44 nM in series [1]; 36.9 nM in the series with IGF-1 receptor [2]; 0.8 ± 0.2 nM in series [3] (setting [8]); 4.83 nM in [4] (setting [9]); 10.6 ± 5.06 nM in series [4] (setting [10]); 379 nM in the series with IGF-1 receptor [5]. The EC50 in series [6] came to 146 nM. Further, the “in vitro phosphorylation activity at the insulin subtype A receptor (result in words)” value in series [3] (FIGS. 21, 23) is listed as “nearly equivalent to native hormone”. Also, the IC50 in series [3] (read-out: Phosphorylation at Insulin Receptor Subtype A (IC50), Table 16A) came out at 3.12 nM; in [4] (read-out: Phosphorylation at Insulin Receptor Subtype B (IC50), Table 16B) it was 1.05 nM. For the same molecule, the “blood glucose lowering” value with blood glucose was “potent insulin receptor agonists”.

B3: … AHLVDALYLVCGDRGFYGYGSSSRRAPQTGIVDECCHRSCDLRRLENYCN (protein, listed as Homo sapiens)
chain: MGSSSSKAPPPSLPSPSRLPGPSDTPILPQEEEEEKGPEHLCGAHLVDALYLVCGDRGFYGYGSSSRRAPQTGIVDECCHRSCDLRRLENYCN
For the molecule B3, the EC50 in the series with IGF-1 receptor [2] is 216 nM; in [3] (setting [7]), 0.985 nM; in [4] (setting [9]), 4.34 nM; with IGF-1 receptor [5] it was 26.7 nM. The “blood glucose lowering” value with blood glucose is given as “potent insulin receptor agonists”.

B4: DP22: CTP-E5R-B chain-CTP(K)-A Chain (SEQ ID NO: 91) (protein)
chain: MGSSSSKAPPPSLPSPSRLPGPSDTPILPQEEEEERGPEHLCGAHLVDALYLVCGDRGFYSSSSRAPPPSLPSPSRLPGPSDTPILPQKGIVDECCHRSCDLRRLENYCN
modifications: single chain insulin analog
Regarding B4, the EC50 in series [1] was 16.4 nM; in the series with IGF-1 receptor [2] it was 438 nM; in series [3] (setting [7]), 1.25 nM; in [3] (setting [8]) it was 0.97 ± 0.17 nM; in series [4] (setting [9]), 11.3 nM; in series [4] (setting [10]), 18.3 ± 10.3 nM. In addition, the EC50 turned out to be 269 nM with IGF-1 receptor [5] and 431 nM in series [6].
